Target: HA-tagged cMyBP-C construct C6–C8 (human)
Assay: co-IP; HEK293 cells co-expressing cMyc-tagged BT (RyR) constructs with HA-tagged cMyBP-C constructs; HA–cMyBP-C immunoprecipitated with Ab^HA from solubilised cell lysates, co-precipitated BT detected by western blotting with Ab^cMyc; non-immune rabbit IgG as negative control; densitometry

Sequence of HA-tagged cMyBP-C construct C6–C8 (human) (Q14896 whole entry): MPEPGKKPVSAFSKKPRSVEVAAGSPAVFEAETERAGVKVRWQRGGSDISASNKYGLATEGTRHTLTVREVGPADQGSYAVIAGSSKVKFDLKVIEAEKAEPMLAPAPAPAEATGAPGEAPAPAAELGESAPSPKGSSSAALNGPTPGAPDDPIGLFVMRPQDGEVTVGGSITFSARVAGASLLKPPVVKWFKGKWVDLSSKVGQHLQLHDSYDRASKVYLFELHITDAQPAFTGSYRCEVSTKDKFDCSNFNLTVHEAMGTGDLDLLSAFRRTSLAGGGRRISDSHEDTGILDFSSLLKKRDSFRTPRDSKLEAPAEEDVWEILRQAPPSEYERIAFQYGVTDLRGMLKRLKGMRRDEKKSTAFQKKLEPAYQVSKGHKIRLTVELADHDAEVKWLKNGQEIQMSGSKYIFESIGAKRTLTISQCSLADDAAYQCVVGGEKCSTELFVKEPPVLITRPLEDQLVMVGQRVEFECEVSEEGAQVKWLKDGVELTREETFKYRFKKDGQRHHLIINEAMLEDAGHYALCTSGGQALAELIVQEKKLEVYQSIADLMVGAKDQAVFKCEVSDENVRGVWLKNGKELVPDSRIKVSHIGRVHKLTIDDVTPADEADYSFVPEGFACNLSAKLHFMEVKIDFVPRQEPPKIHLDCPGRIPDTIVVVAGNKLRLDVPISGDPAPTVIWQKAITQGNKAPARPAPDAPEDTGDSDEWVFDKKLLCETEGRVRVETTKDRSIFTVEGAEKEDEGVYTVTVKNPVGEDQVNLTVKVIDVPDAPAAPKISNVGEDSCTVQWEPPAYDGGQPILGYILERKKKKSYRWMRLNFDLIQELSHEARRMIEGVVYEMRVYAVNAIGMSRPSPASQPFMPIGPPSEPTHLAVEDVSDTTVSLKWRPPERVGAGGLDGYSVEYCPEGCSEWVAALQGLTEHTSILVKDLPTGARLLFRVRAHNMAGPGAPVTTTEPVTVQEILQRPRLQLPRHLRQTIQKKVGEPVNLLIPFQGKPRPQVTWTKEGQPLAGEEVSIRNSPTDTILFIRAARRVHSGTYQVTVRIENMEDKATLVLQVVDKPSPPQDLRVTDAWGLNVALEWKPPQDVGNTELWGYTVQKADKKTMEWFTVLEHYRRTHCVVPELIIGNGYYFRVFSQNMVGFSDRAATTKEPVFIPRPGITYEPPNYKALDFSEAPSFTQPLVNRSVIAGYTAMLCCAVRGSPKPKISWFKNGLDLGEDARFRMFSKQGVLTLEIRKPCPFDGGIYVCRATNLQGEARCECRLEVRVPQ

Q: For “BT4L (cMyc-tagged RyR2 residues 1–906) (from UniProt Q92736 1-906) (domain or fragment)”, which fold signal against C8–C10 is on record?
A: The fold signal against C8–C10 was 3 fold.
